This passage reports Kd, koff and stoichiometry N results from doi:10.1101/2020.07.24.219675.

A value given as a limit tells only on which side of the number the result lay.

For the assay, the target named is sapC-PUMA (protein chimera of saposin C and the BH3 domain of PUMA). The assay can be described thus: NMR titration.

The term Kd denotes the equilibrium constant for the complex coming apart. Read a high Kd as a looser complex. As usually defined, the koff is a measure of how fast the partners let go of each other. The low end stands for a long-lived complex, the high end for a short-lived complex. The stoichiometry N is a count of units in the complex or per binding partner. “Bcl-xL-ΔTM (Bcl-xL without the transmembrane domain) (domain or fragment)” registered a Kd below 310 nM, a dissociation rate constant (koff) below 310 s⁻¹ and a stoichiometry N of 1.
